According to PMC9550759:

Target: high-affinity binding sites and low-affinity sites for VEGF165 on the SK-MEL-28 cell line (human (endogenous in SK-MEL-28))
Experiment: radioligand binding; radio-receptor assay with [125I]-labeled VEGF165 on SK-MEL-28 cells; two classes of sites; data not shown

- KD, high-affinity sites: 0.13 nM
- KD, low-affinity sites: 4.1 nM
Substance: Recombinant Human VEGF165 (from UniProt P15692-4 1-191) (ligand)
